Positions count from the first letter of the chain named.
T1: activated C1s (human, UniProt P09871 16-688)
T1 sequence: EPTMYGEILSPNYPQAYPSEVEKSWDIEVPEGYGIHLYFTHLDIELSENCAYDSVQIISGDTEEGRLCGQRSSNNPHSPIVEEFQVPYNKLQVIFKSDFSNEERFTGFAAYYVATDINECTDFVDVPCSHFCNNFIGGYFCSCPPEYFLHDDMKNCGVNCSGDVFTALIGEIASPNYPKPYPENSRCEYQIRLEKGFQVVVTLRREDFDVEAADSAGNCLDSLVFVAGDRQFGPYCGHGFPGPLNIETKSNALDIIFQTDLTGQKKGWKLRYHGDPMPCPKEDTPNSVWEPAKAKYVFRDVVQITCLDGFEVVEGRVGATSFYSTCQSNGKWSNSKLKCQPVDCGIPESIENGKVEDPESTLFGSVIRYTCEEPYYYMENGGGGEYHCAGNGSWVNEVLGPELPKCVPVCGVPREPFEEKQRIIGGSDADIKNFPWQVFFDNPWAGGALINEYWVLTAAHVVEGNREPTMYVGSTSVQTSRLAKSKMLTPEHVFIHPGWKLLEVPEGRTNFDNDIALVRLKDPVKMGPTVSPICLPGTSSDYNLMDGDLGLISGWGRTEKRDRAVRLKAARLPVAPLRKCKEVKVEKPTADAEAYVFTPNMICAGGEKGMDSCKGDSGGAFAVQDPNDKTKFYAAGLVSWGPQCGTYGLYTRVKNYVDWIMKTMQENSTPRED

B1: murine anti-activated C1s antibody (antibody, V domains shown)
VH: EVQLQQSGAELVRPGASVKLSCTASGFNIKDDYIHWVKQRPEQGLEWIGRIDPADGHTKYAPKFQVKATITADTSSNTAYLQLSSLTSEDTAVYYCARYGYGREVFDYWGQGTTLTVSS
VL: DIVLTQSPASLAVSLGQRATISCKASQSVDYDGDSYMNWYQQKTGQPPKILIYDASNLESGIPARFSGSGSGTDFTLNIHPVEEEDAAIYYCQQSNEDPWTFGGGTKLEIK
B2: humanized VH3/Vk2 (antibody, V domains shown)
VH: QVQLVQSGAEVKKPGASVKLSCTASGFNIKDDYIHWVKQAPGQGLEWIGRIDPADGHTKYAPKFQVKVTITADTSTSTAYLELSSLRSEDTAVYYCARYGYGREVFDYWGQGTTVTVSS
VL: B1 VL with A9D, Q17E, T44P, N78T, H80S, P81S, V82L, E84P, A87F, L108V
B3: humanized VH5/Vk5 (antibody, V domains shown)
VH: B2 VH with L20V, T23A, K38R, L81M
VL: DIVLTQSPDSLAVSLGERATISCKASQSVDYDGDSYMNWYQQKPGQPPKLLIYDASNLESGIPARFSGSGSGTDFTLTISSLEPEDFAVYYCQQSNEDPWTFGGGTKVEIK
B4: humanized VH3/Vk1 (antibody, V domains shown)
VH: B2 VH
VL: B3 VL with P44T, L50I, P84E, V89I
B5: humanized VH2/Vk5 (antibody, V domains shown)
VH: B2 VH with Q1E, V68A, S77N
VL: B3 VL
B6: humanized VH5/Vk2 (antibody, V domains shown)
VH: B2 VH with L20V, T23A, K38R, L81M
VL: B3 VL with L50I, V89I
B7: humanized VH4/Vk2 (antibody, V domains shown)
VH: B2 VH with L20V, K38R, L81M
VL: B3 VL with L50I, V89I
B8: humanized VH3/Vk5 (antibody, V domains shown)
VH: B2 VH
VL: B3 VL
B9: humanized VH4/Vk1 (antibody, V domains shown)
VH: B2 VH with L20V, K38R, L81M
VL: B3 VL with P44T, L50I, P84E, V89I
B10: humanized VH1/Vk1 (antibody, V domains shown)
VH: B2 VH with Q1E, V11L, V68A, S77N, E82Q, R87T
VL: B3 VL with P44T, L50I, P84E, V89I
B11: humanized VH2/Vk1 (antibody, V domains shown)
VH: B2 VH with Q1E, V68A, S77N
VL: B3 VL with P44T, L50I, P84E, V89I
B12: humanized VH5/Vk1 (antibody, V domains shown)
VH: B2 VH with L20V, T23A, K38R, L81M
VL: B3 VL with P44T, L50I, P84E, V89I
B13: humanized VH4/Vk5 (antibody, V domains shown)
VH: B2 VH with L20V, K38R, L81M
VL: B3 VL
B14: humanized VH1/Vk2 (antibody, V domains shown)
VH: B2 VH with Q1E, V11L, V68A, S77N, E82Q, R87T
VL: B3 VL with L50I, V89I
B15: humanized VH1/Vk5 (antibody, V domains shown)
VH: B2 VH with Q1E, V11L, V68A, S77N, E82Q, R87T
VL: B3 VL
B16: VH3/VK2-Fc-sub4 (antibody, human IgG4 S228P, kappa, V domains shown)
VH: B2 VH
VL: DIVLTQSPDSLAVSLGERATISCKASQSVDYDGDSYMNWYQQKPGQPPKILIYDASNLESGIPARFSGSGSGTDFTLTISSLEPEDFAIYYCQQSNEDPWTFGGGTKVEIKR
notes: Humanized IgG4; also called TNT020; humanized anti-aC1s variant VH3/VK2-Fc-sub4

biological target: T1, activated C1s; experiment: cell-based or functional assay

IC50 of classical complement pathway inhibition ('Classical Pathway Inhibition', IC50 (M)) [M] | Binder
1.06e-09 | B1
1.26e-09 | B2
1.33e-09 | B3
1.27e-09 | B4
1.27e-09 | B5
1.33e-09 | B6
1.31e-09 | B7
1.38e-09 | B8
1.35e-09 | B9
1.2e-09 | B10
1.23e-09 | B11
1.08e-09 | B12
1.54e-09 | B13
1.14e-09 | B14
1.26e-09 | B15

biological target: T1, activated C1s; experiment: method not stated; dissociation constant for active C1s

Kd [nM] | Binder
1.53 | B16
